Laboratory results published in publication doi:10.1101/2020.12.02.404004.

Molecular target: VcSiaP R125A Q54R1 L173R1 with N-terminal HisTEV tag (Vibrio cholerae) (UniProt Q9KR64)
Test: crystal structure

Substance: VcSiaP R125A Q54R1 L173R1 with N-terminal HisTEV tag (from UniProt Q9KR64 23-321) (natural protein)
- stoichiometry N: 2
